Reference: article PMC8339339 (Redox Biology, 2021)

Target: the molecule itself
Assay: non-reducing SDS-PAGE with immunoblot

B1: His-tagged human recombinant peroxiredoxin 1 with Cys83 changed to Ser83 (natural protein)
chain: MSSGNAKIGHPAPNFKATAVMPDGQFKDISLSDYKGKYVVFFFYPLDFTFVCPTEIIAFSDRAEEFKKLNCQVIGASVDSHFSHLAWVNTPKKQGGLGPMNIPLVSDPKRTIAQDYGVLKADEGISFRGLFIIDDKGILRQITVNDLPVGRSVDETLRLVQAFQFTDKHGEVCPAGWKPGSDTIKPDVQKSKEYFSKQK
stoichiometry N: 2
